The target of this assay is T1, GlnK (Escherichia coli (strain …, UniProt P0AC55,P0AC55,P0AC55)).
T1 chain 1: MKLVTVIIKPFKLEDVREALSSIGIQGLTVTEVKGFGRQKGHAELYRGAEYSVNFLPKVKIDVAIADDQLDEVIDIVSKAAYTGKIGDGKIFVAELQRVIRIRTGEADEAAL
T1 chain 2: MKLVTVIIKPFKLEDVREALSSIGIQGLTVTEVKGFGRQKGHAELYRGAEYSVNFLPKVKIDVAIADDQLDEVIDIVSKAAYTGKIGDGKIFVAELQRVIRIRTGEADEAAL
T1 chain 3: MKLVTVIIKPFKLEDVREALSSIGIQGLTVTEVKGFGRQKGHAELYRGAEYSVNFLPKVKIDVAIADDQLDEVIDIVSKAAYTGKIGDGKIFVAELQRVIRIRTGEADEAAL
Description: BLI (His-PII trimer on sensor), ADP.

B1: UmpH (protein)
chain: MTIKNVICDIDGVLMHDNVAVPGAAEFLHGIMDKGLPLVLLTNYPSQTGQDLANRFATAGVDVPDSVFYTSAMATADFLRRQEGKKAYVVGEGALIHELYKAGFTITDVNPDFVIVGETRSYNWDMMHKAAYFVANGARFIATNPDTHGRGFYPACGALCAGIEKISGRKPFYVGKPSPWIIRAALNKMQAHSEETVIVGDNLRTDILAGFQAGLETILVLSGVSSLDDIDSMPFRPSWIYPSVAEIDVI
A word on the Kd: it is the free concentration of one partner at which half of the binding sites on the other are occupied at equilibrium, for simple one-to-one binding. Lower therefore signals tighter binding. B1: binding was put at a Kd of 7.8 nM.

These data come from PMC11617674 (2024).
